Assay results published in article PMC7058361, “Functional interactions between posttranslationally modified amino acids of methyl-coenzyme M reductase in Methanosarcina acetivorans” (PLoS Biology, 2020).

B1: McrA from the ΔmamA mutant of M. acetivorans (lacks 5-(S)-methylarginine) (natural protein, Methanosarcina acetivorans, UniProt Q8THH1 1-570, looked up)
chain: MAADIFAKFKKSMEVKFTQEYGSNKQAGGDITGKTEKFLRLGPEQDARKQEMIKAGKEIAEKRGIAFYNPMMHMGAPLGQRAITPYTISGTDIVAEPDDLHYVNNAAMQQMWDDIRRTCIVGLDMAHETLEKRLGKEVTPETINHYLETLNHAMPGAAVVQEMMVETHPALVDDCYVKIFTGDDELADEIDKQYVINVNKMFSEEQAAQIKASIGKTTWQAIHIPTIVSRTTDGAQTSRWAAMQIGMSFISAYAMCAGEAAVADLSFAAKHAALVSMGEMLPARRARGPNEPGGLSFGHLSDIVQTSRVSKDPAKIALEVVGAGCMLYDQIWLGSYMSGGVGFTQYATAAYTDDILDNNTYYDVDYINDKYNGAANLGTDNKVKATLDVVKDIATESTLYGIETYEKFPTALEDHFGGSQRATVLAAASGVACALATGNANAGLSGWYLSMYVHKEAWGRLGFFGFDLQDQCGATNVLSYQGDEGLPDELRGPNYPNYAMNVGHQGGYAGIAQAAHSGRGDAFTVNPLLKVCFADELMPFNFAEPRREFGRGAIREFMPAGERSLVIPAK
modifications: N1-methylhistidine at His271; thioglycine at Gly465; didehydroaspartate at Asp470; S-methylcysteine at Cys472; Arg285 unmodified
notes: McrA, alpha subunit of methyl-coenzyme M reductase, Methanosarcina acetivorans; chromosomally encoded; differs only in the posttranslational modifications; also called McrA with unmodified Arg285; source: endogenous, M. acetivorans ΔmamA strain with TAP-tagged mcrG
B2: McrA from the ΔmcmAΔycaO-tfuA double mutant of M. acetivorans (lacks S-methylcysteine and thioglycine) (natural protein, Methanosarcina acetivorans, UniProt Q8THH1 1-570, looked up)
chain: MAADIFAKFKKSMEVKFTQEYGSNKQAGGDITGKTEKFLRLGPEQDARKQEMIKAGKEIAEKRGIAFYNPMMHMGAPLGQRAITPYTISGTDIVAEPDDLHYVNNAAMQQMWDDIRRTCIVGLDMAHETLEKRLGKEVTPETINHYLETLNHAMPGAAVVQEMMVETHPALVDDCYVKIFTGDDELADEIDKQYVINVNKMFSEEQAAQIKASIGKTTWQAIHIPTIVSRTTDGAQTSRWAAMQIGMSFISAYAMCAGEAAVADLSFAAKHAALVSMGEMLPARRARGPNEPGGLSFGHLSDIVQTSRVSKDPAKIALEVVGAGCMLYDQIWLGSYMSGGVGFTQYATAAYTDDILDNNTYYDVDYINDKYNGAANLGTDNKVKATLDVVKDIATESTLYGIETYEKFPTALEDHFGGSQRATVLAAASGVACALATGNANAGLSGWYLSMYVHKEAWGRLGFFGFDLQDQCGATNVLSYQGDEGLPDELRGPNYPNYAMNVGHQGGYAGIAQAAHSGRGDAFTVNPLLKVCFADELMPFNFAEPRREFGRGAIREFMPAGERSLVIPAK
modifications: N1-methylhistidine at His271; 5-(S)-methylarginine at Arg285; didehydroaspartate at Asp470; Gly465 and Cys472 unmodified
notes: McrA, alpha subunit of methyl-coenzyme M reductase, Methanosarcina acetivorans; chromosomally encoded; differs only in the posttranslational modifications; also called McrA from ΔycaO-tfuA/ΔmcmA; source: endogenous, M. acetivorans ΔmcmAΔycaO-tfuA strain with TAP-tagged mcrG
B3: McrA from the ΔmamAΔycaO-tfuA double mutant of M. acetivorans (lacks 5-(S)-methylarginine and thioglycine) (natural protein, Methanosarcina acetivorans, UniProt Q8THH1 1-570, looked up)
chain: MAADIFAKFKKSMEVKFTQEYGSNKQAGGDITGKTEKFLRLGPEQDARKQEMIKAGKEIAEKRGIAFYNPMMHMGAPLGQRAITPYTISGTDIVAEPDDLHYVNNAAMQQMWDDIRRTCIVGLDMAHETLEKRLGKEVTPETINHYLETLNHAMPGAAVVQEMMVETHPALVDDCYVKIFTGDDELADEIDKQYVINVNKMFSEEQAAQIKASIGKTTWQAIHIPTIVSRTTDGAQTSRWAAMQIGMSFISAYAMCAGEAAVADLSFAAKHAALVSMGEMLPARRARGPNEPGGLSFGHLSDIVQTSRVSKDPAKIALEVVGAGCMLYDQIWLGSYMSGGVGFTQYATAAYTDDILDNNTYYDVDYINDKYNGAANLGTDNKVKATLDVVKDIATESTLYGIETYEKFPTALEDHFGGSQRATVLAAASGVACALATGNANAGLSGWYLSMYVHKEAWGRLGFFGFDLQDQCGATNVLSYQGDEGLPDELRGPNYPNYAMNVGHQGGYAGIAQAAHSGRGDAFTVNPLLKVCFADELMPFNFAEPRREFGRGAIREFMPAGERSLVIPAK
modifications: N1-methylhistidine at His271; didehydroaspartate at Asp470; S-methylcysteine at Cys472; Arg285 and Gly465 unmodified
notes: McrA, alpha subunit of methyl-coenzyme M reductase, Methanosarcina acetivorans; chromosomally encoded; differs only in the posttranslational modifications; source: endogenous, M. acetivorans ΔmamAΔycaO-tfuA strain with TAP-tagged mcrG
B4: McrA from the ΔmamAΔmcmA double mutant of M. acetivorans (lacks 5-(S)-methylarginine and S-methylcysteine) (natural protein, Methanosarcina acetivorans, UniProt Q8THH1 1-570, looked up)
chain: MAADIFAKFKKSMEVKFTQEYGSNKQAGGDITGKTEKFLRLGPEQDARKQEMIKAGKEIAEKRGIAFYNPMMHMGAPLGQRAITPYTISGTDIVAEPDDLHYVNNAAMQQMWDDIRRTCIVGLDMAHETLEKRLGKEVTPETINHYLETLNHAMPGAAVVQEMMVETHPALVDDCYVKIFTGDDELADEIDKQYVINVNKMFSEEQAAQIKASIGKTTWQAIHIPTIVSRTTDGAQTSRWAAMQIGMSFISAYAMCAGEAAVADLSFAAKHAALVSMGEMLPARRARGPNEPGGLSFGHLSDIVQTSRVSKDPAKIALEVVGAGCMLYDQIWLGSYMSGGVGFTQYATAAYTDDILDNNTYYDVDYINDKYNGAANLGTDNKVKATLDVVKDIATESTLYGIETYEKFPTALEDHFGGSQRATVLAAASGVACALATGNANAGLSGWYLSMYVHKEAWGRLGFFGFDLQDQCGATNVLSYQGDEGLPDELRGPNYPNYAMNVGHQGGYAGIAQAAHSGRGDAFTVNPLLKVCFADELMPFNFAEPRREFGRGAIREFMPAGERSLVIPAK
modifications: N1-methylhistidine at His271; thioglycine at Gly465; didehydroaspartate at Asp470; Arg285 and Cys472 unmodified
notes: McrA, alpha subunit of methyl-coenzyme M reductase, Methanosarcina acetivorans; chromosomally encoded; differs only in the posttranslational modifications; source: endogenous, M. acetivorans ΔmamAΔmcmA strain with TAP-tagged mcrG
B5: McrA from the ΔmamAΔmcmAΔycaO-tfuA triple mutant of M. acetivorans (lacks 5-(S)-methylarginine, S-methylcysteine and thioglycine) (natural protein, Methanosarcina acetivorans, UniProt Q8THH1 1-570, looked up)
chain: MAADIFAKFKKSMEVKFTQEYGSNKQAGGDITGKTEKFLRLGPEQDARKQEMIKAGKEIAEKRGIAFYNPMMHMGAPLGQRAITPYTISGTDIVAEPDDLHYVNNAAMQQMWDDIRRTCIVGLDMAHETLEKRLGKEVTPETINHYLETLNHAMPGAAVVQEMMVETHPALVDDCYVKIFTGDDELADEIDKQYVINVNKMFSEEQAAQIKASIGKTTWQAIHIPTIVSRTTDGAQTSRWAAMQIGMSFISAYAMCAGEAAVADLSFAAKHAALVSMGEMLPARRARGPNEPGGLSFGHLSDIVQTSRVSKDPAKIALEVVGAGCMLYDQIWLGSYMSGGVGFTQYATAAYTDDILDNNTYYDVDYINDKYNGAANLGTDNKVKATLDVVKDIATESTLYGIETYEKFPTALEDHFGGSQRATVLAAASGVACALATGNANAGLSGWYLSMYVHKEAWGRLGFFGFDLQDQCGATNVLSYQGDEGLPDELRGPNYPNYAMNVGHQGGYAGIAQAAHSGRGDAFTVNPLLKVCFADELMPFNFAEPRREFGRGAIREFMPAGERSLVIPAK
modifications: N1-methylhistidine at His271; didehydroaspartate at Asp470; Arg285, Gly465 and Cys472 unmodified
notes: McrA, alpha subunit of methyl-coenzyme M reductase, Methanosarcina acetivorans; chromosomally encoded; differs only in the posttranslational modifications; also called McrA from the triple-deletion mutant; source: endogenous, M. acetivorans ΔmamAΔmcmAΔycaO-tfuA strain with TAP-tagged mcrG
B6: McrA from the ΔycaO-tfuA mutant of M. acetivorans (lacks thioglycine) (natural protein, Methanosarcina acetivorans, UniProt Q8THH1 1-570, looked up)
chain: MAADIFAKFKKSMEVKFTQEYGSNKQAGGDITGKTEKFLRLGPEQDARKQEMIKAGKEIAEKRGIAFYNPMMHMGAPLGQRAITPYTISGTDIVAEPDDLHYVNNAAMQQMWDDIRRTCIVGLDMAHETLEKRLGKEVTPETINHYLETLNHAMPGAAVVQEMMVETHPALVDDCYVKIFTGDDELADEIDKQYVINVNKMFSEEQAAQIKASIGKTTWQAIHIPTIVSRTTDGAQTSRWAAMQIGMSFISAYAMCAGEAAVADLSFAAKHAALVSMGEMLPARRARGPNEPGGLSFGHLSDIVQTSRVSKDPAKIALEVVGAGCMLYDQIWLGSYMSGGVGFTQYATAAYTDDILDNNTYYDVDYINDKYNGAANLGTDNKVKATLDVVKDIATESTLYGIETYEKFPTALEDHFGGSQRATVLAAASGVACALATGNANAGLSGWYLSMYVHKEAWGRLGFFGFDLQDQCGATNVLSYQGDEGLPDELRGPNYPNYAMNVGHQGGYAGIAQAAHSGRGDAFTVNPLLKVCFADELMPFNFAEPRREFGRGAIREFMPAGERSLVIPAK
modifications: N1-methylhistidine at His271; 5-(S)-methylarginine at Arg285; didehydroaspartate at Asp470; S-methylcysteine at Cys472; Gly465 unmodified
notes: McrA, alpha subunit of methyl-coenzyme M reductase, Methanosarcina acetivorans; chromosomally encoded; differs only in the posttranslational modifications; also called McrA with unmodified Gly465; source: endogenous, M. acetivorans ΔycaO-tfuA strain with TAP-tagged mcrG
B7: McrA from the ΔmcmA mutant of M. acetivorans (lacks S-methylcysteine) (natural protein, Methanosarcina acetivorans, UniProt Q8THH1 1-570, looked up)
chain: MAADIFAKFKKSMEVKFTQEYGSNKQAGGDITGKTEKFLRLGPEQDARKQEMIKAGKEIAEKRGIAFYNPMMHMGAPLGQRAITPYTISGTDIVAEPDDLHYVNNAAMQQMWDDIRRTCIVGLDMAHETLEKRLGKEVTPETINHYLETLNHAMPGAAVVQEMMVETHPALVDDCYVKIFTGDDELADEIDKQYVINVNKMFSEEQAAQIKASIGKTTWQAIHIPTIVSRTTDGAQTSRWAAMQIGMSFISAYAMCAGEAAVADLSFAAKHAALVSMGEMLPARRARGPNEPGGLSFGHLSDIVQTSRVSKDPAKIALEVVGAGCMLYDQIWLGSYMSGGVGFTQYATAAYTDDILDNNTYYDVDYINDKYNGAANLGTDNKVKATLDVVKDIATESTLYGIETYEKFPTALEDHFGGSQRATVLAAASGVACALATGNANAGLSGWYLSMYVHKEAWGRLGFFGFDLQDQCGATNVLSYQGDEGLPDELRGPNYPNYAMNVGHQGGYAGIAQAAHSGRGDAFTVNPLLKVCFADELMPFNFAEPRREFGRGAIREFMPAGERSLVIPAK
modifications: N1-methylhistidine at His271; 5-(S)-methylarginine at Arg285; thioglycine at Gly465; didehydroaspartate at Asp470; Cys472 unmodified
notes: McrA, alpha subunit of methyl-coenzyme M reductase, Methanosarcina acetivorans; chromosomally encoded; differs only in the posttranslational modifications; also called McrA with unmodified Cys472; source: endogenous, M. acetivorans ΔmcmA strain with TAP-tagged mcrG
B8: alpha subunit of methyl-coenzyme M reductase (McrA) from wild-type M. acetivorans, fully modified (natural protein, Methanosarcina acetivorans, UniProt Q8THH1 1-570, looked up)
chain: MAADIFAKFKKSMEVKFTQEYGSNKQAGGDITGKTEKFLRLGPEQDARKQEMIKAGKEIAEKRGIAFYNPMMHMGAPLGQRAITPYTISGTDIVAEPDDLHYVNNAAMQQMWDDIRRTCIVGLDMAHETLEKRLGKEVTPETINHYLETLNHAMPGAAVVQEMMVETHPALVDDCYVKIFTGDDELADEIDKQYVINVNKMFSEEQAAQIKASIGKTTWQAIHIPTIVSRTTDGAQTSRWAAMQIGMSFISAYAMCAGEAAVADLSFAAKHAALVSMGEMLPARRARGPNEPGGLSFGHLSDIVQTSRVSKDPAKIALEVVGAGCMLYDQIWLGSYMSGGVGFTQYATAAYTDDILDNNTYYDVDYINDKYNGAANLGTDNKVKATLDVVKDIATESTLYGIETYEKFPTALEDHFGGSQRATVLAAASGVACALATGNANAGLSGWYLSMYVHKEAWGRLGFFGFDLQDQCGATNVLSYQGDEGLPDELRGPNYPNYAMNVGHQGGYAGIAQAAHSGRGDAFTVNPLLKVCFADELMPFNFAEPRREFGRGAIREFMPAGERSLVIPAK
modifications: N1-methylhistidine at His271; 5-(S)-methylarginine at Arg285; thioglycine at Gly465; didehydroaspartate at Asp470; S-methylcysteine at Cys472
notes: McrA, alpha subunit of methyl-coenzyme M reductase, Methanosarcina acetivorans; chromosomally encoded; Two copies stand in the α2β2γ2 complex; also called α subunit of MCR; α-subunit; source: endogenous, M. acetivorans strain with TAP-tagged mcrG

Target: the molecule itself
Assay: crystal structure; TAP-tagged MCR variants affinity-purified aerobically from the modification mutants, inactive Ni(II) form; 3-30 mg/ml, hanging drops, same reservoir solution as the wild type; 1.9-2.3 Å

| Protein | binding result |
| --- | --- |
| B1 | binds |
| B2 | binds |
| B3 | binds |
| B4 | binds |
| B5 | binds |
| B6 | binds |
| B7 | binds |

Target: the molecule itself
Assay: crystal structure; wild-type TAP-tagged MCR complex affinity-purified aerobically from M. acetivorans, inactive Ni(II) form; 25 mg/ml, sitting drops, 0.2 M ammonium acetate, 0.1 M sodium acetate pH 4, 15% PEG 4000, room temperature; 1.65 Å

| Protein | binding result |
| --- | --- |
| B8 | binds |
